The results in this text go back to patent US20040132045A1 (MERCK, published 2004).

“And” between values parts separate entries of the source, which are not always exact repeats. Equal values may be shown once. Bridges are numbered along the chain shown (N, C = ends). Where no end group is shown, it is not given here.

Assay [1] concerns the target rhesus monkey MCH-2R (melanin-concentrating hormone type 2 receptor) (rhesus monkey) (UniProt Q8MJ88). Kind of assay: radioligand binding to HEK293T cells expressing rhesus MCH-2R in the presence of 1 uM cold [Phe13, Tyr19]-MCH.
For assay [2] the target is unchanged. Kind of assay: radioligand binding to HEK293T cells expressing rhesus MCH-2R, cell-bound radioactivity.
In assay [3] the target is T1, ferret MCH-2R (ferret, UniProt Q969V1 1-340 (human entry)).
T1 chain: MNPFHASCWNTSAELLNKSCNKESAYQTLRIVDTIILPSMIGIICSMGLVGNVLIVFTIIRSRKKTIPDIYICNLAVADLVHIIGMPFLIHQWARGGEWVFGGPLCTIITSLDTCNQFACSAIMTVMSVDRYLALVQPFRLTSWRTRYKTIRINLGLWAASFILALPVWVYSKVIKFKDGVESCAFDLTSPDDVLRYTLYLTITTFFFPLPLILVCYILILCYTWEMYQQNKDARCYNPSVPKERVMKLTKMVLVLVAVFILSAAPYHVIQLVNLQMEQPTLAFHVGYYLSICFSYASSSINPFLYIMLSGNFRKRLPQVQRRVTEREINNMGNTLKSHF
Kind of assay: cell-based or functional assay.

The target of assay [4] is T2, human MCH-2R (human, UniProt Q969V1 1-340). Kind of assay: cell-based or functional assay.
The target of assay [5] is T1, ferret MCH-2R. Kind of assay: radioligand competition binding on membranes of COS-7 cells transfected with ferret MCH-2R; radioligand not named. The procedure: (§1) (Strader, et al., 1987. Proc. Natl. Acad. Sci. USA 84, 4384-4388). Cells were harvested after 60-72 hours. Membranes were prepared from transient and stable transfectants by hypotonic lysis, frozen in liquid nitrogen, and stored at −80° C. (MacNeil, et al., 1994. Biochem. Biophys. Res. Commun. 198, 328-334.)
(§2) A binding assay was set up in 96 well plates. Total volume per binding assay point was 200 μL. […] Dose response curves were from 10 μM in 5 fold or 3-fold dilution series for 11 points. The mixture was shaken for 5 minutes on a platform shaker, and incubated at room temperature for 1 hour. Filter plates were presoaked in 1% PEI. The binding reaction was harvested onto filters using Packard Filtermate harvester (Meriden, Conn.). The filters were then washed in 50 mM Tris pH 7.4, 10 mM MgCl₂, 2 mM EDTA, 0.04% Tween 20, 6-8 times per plate. The plates were dried for 20 minutes at 55° C. or overnight at room temperature. 30 μL microscintillant was added per well and counted for 1.5-3 minutes in inverted format on Packard TopCount.
(In a radioligand displacement assay an active substance lowers the binding of a labelled ligand.)

Assay [6] addresses T2, human MCH-2R. Kind of assay: radioligand competition binding on membranes of COS-7 cells transfected with human MCH-2R; radioligand not named. The procedure:
as §1, §2

Assay [7] addresses T3, rhesus monkey MCH-2R (melanin-concentrating hormone type 2 receptor) (rhesus monkey, UniProt Q8MJ88 1-340). Kind of assay: cell-based or functional assay.
For assay [8], the target named is T3, rhesus monkey MCH-2R …. Kind of assay: displacement of 100 pM [125I]-[Phe13, Tyr19]-MCH from HEK293T cells expressing rhesus MCH-2R, filtration. As to the method: The remaining radio activity on the filter was quantitated using a TopCount HTS (Packard instrument) with a Microscint 0 scintillation cocktail (Packard instrument). […] Data were analyzed using GraphPad Prism Version 3.0.

Sequence of rhesus monkey MCH-2R (melanin-concentrating hormone type 2 receptor) (rhesus monkey) (Q8MJ88 whole entry): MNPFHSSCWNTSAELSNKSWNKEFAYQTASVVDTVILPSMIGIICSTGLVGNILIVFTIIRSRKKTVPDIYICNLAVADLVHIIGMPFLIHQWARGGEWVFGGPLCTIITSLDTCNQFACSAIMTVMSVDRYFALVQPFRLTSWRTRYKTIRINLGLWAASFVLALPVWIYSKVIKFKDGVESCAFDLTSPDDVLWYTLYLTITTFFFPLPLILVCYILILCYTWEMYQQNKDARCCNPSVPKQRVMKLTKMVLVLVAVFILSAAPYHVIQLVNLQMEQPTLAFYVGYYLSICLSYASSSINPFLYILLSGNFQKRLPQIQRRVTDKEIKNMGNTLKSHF
T3 sequence (Q8MJ88 whole entry): as above
T2 sequence (Q969V1 whole entry): as the sequence (Q8MJ88 whole entry) above, with S6A, S16L, I84V, S143R, V163I, I170V, A258V, V324A, D326E, K330N counted along it

For “[^125I]-[Phe^13, Tyr^19]-MCH (from UniProt P20382 147-165) (peptide)”, in assay [1], the Nonspecific binding (cpm) is 598 cpm and 567 cpm and 717 cpm. Besides, the Total binding (cpm) in assay [2] is 18000 cpm (2×) and 18700 cpm.

B1: Melanin-concentrating hormone (MCH) (peptide, UniProt P20382 147-165, looked up)
peptide: DFDMLRCMLGRVYRPCWQV
modifications: disulfide 7-16 (inferred)
notes: mature; also called cold MCH; MCH unlabeled peptide
In the case of B1, the “Function (EC50, nM), aequorin bioluminescence assay” value was determined as 69 nM in the assay with ferret MCH-2R [3] and 43 nM in the assay with human MCH-2R [4]. For the same molecule, the IC50 (commonly the concentration that inhibits the measured activity by half) in the assay with ferret MCH-2R [5] turned out to be 55 nM; with human MCH-2R [6] it was 10 nM. For the same molecule, the “increase in intracellular calcium levels (fura-2), EC50” value in assay [7] came to 24 nM.
For the molecule DFDMLRCMLGRVFRPCWQY (ends and bridges not checked; cysteine pairing not given here) [[Phe^13, Tyr^19]-MCH], the IC50 in assay [8] came out at 3.8 nM. For the same molecule, the “increase in intracellular calcium levels (fura-2), EC50” value in assay [7] came to 49 nM.
